In patent US20260159585A1 (SHANGHAI HENLIUS BIOTECH, published 2026):

How the values were obtained:
[1] = target: T1, human CD47 expressed on cells (human, UniProt Q08722 19-323); assay: FACS, whole cell binding to human primary red blood cells, FITC anti-human Fc; upper panel
T1 construct: whole, on cells; One molecule for all cell types; also called CD47 on Jurkat cells; CD47 on human red blood cells (RBCs)

hCD47-His antigen [2] = target: T2, hCD47-His antigen (human, UniProt Q08722 19-139, limits assumed); assay: ELISA on coated hCD47-His, HRP anti-human Fc, OD450; plate1
T2 construct: also called human CD47; not shown: His tag

[3] = target: T1, human CD47 expressed on cells; assay: FACS, whole cell binding to human primary red blood cells, FITC anti-human Fc; lower panel
hCD47-His antigen [4] = target: T2, hCD47-His antigen; assay: ELISA on coated hCD47-His, HRP anti-human Fc, OD450; plate3
hCD47-His antigen [5] = target: T2, hCD47-His antigen; assay: ELISA on coated hCD47-His, HRP anti-human Fc, OD450; plate2
hCD47-His antigen [6] = target: T2, hCD47-His antigen; assay: ELISA on coated hCD47-His, HRP anti-human Fc, OD450; plate4

B1: M1 #21 (antibody, V domains shown)
VH: QVQLQQWGAGLLKPSETLSLTCAVYGGSFSGYYWSWIRQPPGKGLEWIGEINQSGSTNYNPSLKSRVTISVDTSKNQFSLRLSSVTAADTAMYYCARFTGRPYYGMDVWGQGTTVTVSS
VL: SYELTQPPSVSATPGQRVTISCSGSESNIGSHKVKWYQQFAGAAPRLLIHGNDQRFSGVPDRFSGSKSGTSASLAISGLQSEDEADYYCAAWDDSLYGRVFGGGTKLTVL
What does the source list for B1?
EC50 (read off the curve) [1]: ~200 pM; EC50 (read off the curve) (hCD47-His antigen [2]): ~100 pM; EC50 (read off the curve) [3]: ~300 pM; EC50 (read off the curve) (hCD47-His antigen [4]): ~100 pM; EC50 (read off the curve) (hCD47-His antigen [5]): ~80 pM; EC50 (read off the curve) (hCD47-His antigen [6]): ~70 pM
